Biological target: Apaf-1 (UniProt O14727)
Assay: cell-based or functional assay

Chain of UniProt O14727 (O14727 whole entry): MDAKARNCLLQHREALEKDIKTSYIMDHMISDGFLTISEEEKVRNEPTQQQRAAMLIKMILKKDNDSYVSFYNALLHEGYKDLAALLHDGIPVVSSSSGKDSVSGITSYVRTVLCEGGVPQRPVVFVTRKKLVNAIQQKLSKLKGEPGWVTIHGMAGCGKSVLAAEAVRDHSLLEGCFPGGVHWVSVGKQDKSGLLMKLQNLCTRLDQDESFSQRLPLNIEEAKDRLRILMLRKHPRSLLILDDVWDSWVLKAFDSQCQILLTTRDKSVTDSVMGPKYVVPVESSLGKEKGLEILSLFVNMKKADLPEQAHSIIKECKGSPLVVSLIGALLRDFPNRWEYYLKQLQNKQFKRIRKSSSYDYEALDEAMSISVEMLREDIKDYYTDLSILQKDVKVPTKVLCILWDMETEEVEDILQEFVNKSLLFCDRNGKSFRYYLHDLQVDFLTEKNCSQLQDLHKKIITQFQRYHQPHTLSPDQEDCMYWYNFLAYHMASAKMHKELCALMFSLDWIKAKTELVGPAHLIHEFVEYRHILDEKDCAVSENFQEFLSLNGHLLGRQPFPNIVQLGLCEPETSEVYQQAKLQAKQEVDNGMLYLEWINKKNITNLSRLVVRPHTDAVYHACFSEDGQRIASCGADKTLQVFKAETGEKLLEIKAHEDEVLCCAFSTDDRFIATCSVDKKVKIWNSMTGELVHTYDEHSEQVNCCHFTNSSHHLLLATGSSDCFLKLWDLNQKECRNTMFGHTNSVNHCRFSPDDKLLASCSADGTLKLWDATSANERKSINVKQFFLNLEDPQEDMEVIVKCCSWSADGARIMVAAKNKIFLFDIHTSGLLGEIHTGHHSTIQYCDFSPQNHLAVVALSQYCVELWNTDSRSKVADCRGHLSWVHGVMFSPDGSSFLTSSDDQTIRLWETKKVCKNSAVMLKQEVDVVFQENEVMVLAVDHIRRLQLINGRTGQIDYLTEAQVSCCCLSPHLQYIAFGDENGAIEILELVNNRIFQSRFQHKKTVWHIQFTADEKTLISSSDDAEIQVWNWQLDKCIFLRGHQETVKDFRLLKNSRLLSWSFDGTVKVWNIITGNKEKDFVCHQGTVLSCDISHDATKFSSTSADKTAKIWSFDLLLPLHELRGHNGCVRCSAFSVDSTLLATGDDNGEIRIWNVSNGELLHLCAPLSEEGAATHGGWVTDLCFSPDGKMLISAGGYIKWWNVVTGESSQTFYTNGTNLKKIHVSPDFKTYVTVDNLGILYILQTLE

“CYCS(Gly42-Ser) (from UniProt P99999 2-105)” was tested. Which caspase-3 activation activity (AMC production rate from Ac-DEVD-AMC, cell-free assay with U-937 cytosol) (fold greater than wild type) did it give?
The caspase-3 activation activity (AMC production rate from Ac-DEVD-AMC, cell-free assay with U-937 cytosol) (fold greater than wild type) was 1.4.

From US20080242633A1
